The supplement of paper PMC9170038

Test system: MS2 coat protein
Assay: apparent KD of MS2 coat protein; designed switch direction (-1 OFF switch, 1 ON switch): -1; higher = weaker reporter binding
Method in brief: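 Apparent KD, taken as the median over clusters for each design, was obtained by curve-fitting normalised cluster fluorescence. Designed RNA switches had been transcribed on Illumina chips by stalled E. coli RNA polymerase and titrated with SNAP-549-labelled MS2 coat protein, doubling from 0.7 or 1.5 nM to 3 µM.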

[1] = Eterna round: R95, input ligand: FMN 200 uM
[2] = Eterna round: R95, input ligand: microRNA oligo, concentration not stated
[3] = Eterna round: R95, input ligand: none
[4] = input ligand: microRNA oligo, concentration not stated

Row | Sequence | apparent KD of MS2 coat protein (input ligand: FMN 200 uM) [nM] | apparent KD of MS2 coat protein (input ligand: none) [nM] | apparent KD of MS2 coat protein [1] [nM] | apparent KD of MS2 coat protein [2] [nM] | apparent KD of MS2 coat protein [3] [nM] | apparent KD of MS2 coat protein [4] [nM]
1 | CGCUGGACAGGAUAUGUUUUUGGGCACUUGAGGAUCACCCAAGUCAUCAAGAAAACAGGCACAGAAGGGUUUAUGG [salish99_ex5_r4_022(!)] (Eterna round: R97, puzzle: Exclusion 5) | 28 | 25.1 | – | – | – | –
2 | CGGAGCAGAGGGAGAUCCAACAUGAGGAUCACCCAUGUCUCACAAGCUUUUUGCUCGUCUUAUUGUACCUUGGUGCU [JL ViennaUCT Edcesobi mod 7] (puzzle: Sensor v3, turn-off variant 1) | – | – | 64.5 | 11.1 | 49.1 | –
3 | CGGAGCAGAGGGAGAUCCAACAUGAGGAUCACCCAUGUCUCAUAAGCUUUUUGCUCAUCUUAUUGUACCUUGGUGCU [JL ViennaUCT Edcesobi mod 5] (puzzle: Sensor v3, turn-off variant 1) | – | – | 37.3 | 15.4 | 46.4 | –
4 | CGGCAAUCCUAGGAUAUGCUAGACGAAAGUCUAGCAGAAGGAGGAACAUGAGGAUCACCCAUGUGUCCUAGCCG [Eli x6 4.02] (Eterna round: R97, puzzle: Exclusion 6) | 23.5 | 20.2 | – | – | – | –
5 | CGGGACCGAGGAUAUACAUGUGGACUCGAGUUGACGUUGGGACAUGAGGAUCACCCAUGUAGAAGGCGGAUCUU [Eternabot (L2) Solution 57] (Eterna round: R97, puzzle: Exclusion 2) | 270 | 741 | – | – | – | –
6 | CGGGACGUCCUGAUAAUAAGACAUGAGGAUCACCCAUGUCGGCAGGAUAUCAGUCCUUACGGUUAUGAGAAGGGUCGGCAACCA [Quatis] (Eterna round: R96, puzzle: Exclusion NG 3) | 10.9 | 11.6 | – | – | – | 9.05
7 | CGGGAGGGACAAGCUUUUUGCACGUCUGUUAUUGAUGCAACAUGAGGAUCACCCAUGUUUAGGGUGUGAGAGGAUGG [JR_SV3TOV2_Sub051] (puzzle: Sensor v3, turn-off variant 2) | – | – | 373 | 471 | 553 | –
8 | CGGGUCUGAGGAUAUCCACCCUCAUACAUGAGGAUCACCCAUGUUCACCCUUGGGUUCCCGGAGAAGGCAGUUUUC [Megrez-3.6] (Eterna round: R97, puzzle: Exclusion 5) | 275 | 208 | – | – | – | –
9 | CGGGUGAACAGAGGAUAUCGUACAUGAGGAUCACCCAUGUAAUAAAUGAGAAUUUCGAAUGUAAUCGAGAAGGCUGGAAAACCC [Ostracism 93 - Jieux - Exclusion NG 2] (Eterna round: R96, puzzle: Exclusion NG 2) | 228 | 128 | – | – | – | 115
10 | CGGUGCUGAGGAUAUACAUGAGGAUCACCCAUGUGUGCCAGCUAGAAGACUGGCACUUGUAGAAGGCAGUACUG [Mat - Exclusion 3 - Mod of JL D90] (puzzle: Exclusion 3) | – | – | – | 10.3 | – | –
11 | CGUACUGAAGUGAGGAUAUUGUCUCGGAUACGAAACAAGAAGGCACAUGAGGAUCACCCAUGUAAACAGUACGA [Malc #30 mod 10] (puzzle: Brourd's mod of Exclusion 4) | – | – | – | 15.6 | – | –
12 | CGUGGACUAGGAUAUUUACGAGGCUACAUGAGGAUCACCCAUGUGUUCUCGAGUACCAUGAAAGAAGGAGUAGCGA [Betiatte] (puzzle: Exclusion 5) | – | – | – | 12 | – | –
13 | CGUUUGCAUUUUGCUCGUCACAUGAGGAUCACCCAUGUUAUGCUACAGUACGCUAGGAUCGGCGUCUGAGGGCUUUA [Eternabot (Original) Solution 1] (Eterna round: R97, puzzle: Sensor, turn-off variant 1) | 25.2 | 27.7 | – | – | – | –
14 | CUAAUACAUCAGGAUAUCUAUGAUUAUAGCCAUAGAGAAGGGAUGACAUGAGGAUCACCCAUGUCAAAGGGUGA [eternacac ex6r4 sub21] (Eterna round: R97, puzzle: Exclusion 6) | 426 | 879 | – | – | – | –
